Molecular target: complement factor C1q
Experiment: FACS, C1q on antibody-coated BT-474 cells, 10 ug/ml each

complement factor C1q, sequence (P02745 23-245, chain 1 of 3): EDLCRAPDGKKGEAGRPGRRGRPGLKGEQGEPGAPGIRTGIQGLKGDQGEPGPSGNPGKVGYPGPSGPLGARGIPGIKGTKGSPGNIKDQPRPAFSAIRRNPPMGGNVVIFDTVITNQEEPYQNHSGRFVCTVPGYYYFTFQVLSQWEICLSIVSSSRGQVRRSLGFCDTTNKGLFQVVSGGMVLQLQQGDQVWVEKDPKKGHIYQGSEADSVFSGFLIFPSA
complement factor C1q, sequence (P02746 28-253, chain 2 of 3, further chain): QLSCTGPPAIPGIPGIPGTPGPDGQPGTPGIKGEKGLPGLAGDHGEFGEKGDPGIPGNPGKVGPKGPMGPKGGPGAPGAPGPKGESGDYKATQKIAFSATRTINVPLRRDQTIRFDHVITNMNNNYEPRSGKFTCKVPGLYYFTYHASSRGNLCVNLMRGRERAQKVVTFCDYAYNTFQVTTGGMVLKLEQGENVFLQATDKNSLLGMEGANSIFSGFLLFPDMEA
complement factor C1q, sequence (P02747 29-245, chain 3 of 3, further chain): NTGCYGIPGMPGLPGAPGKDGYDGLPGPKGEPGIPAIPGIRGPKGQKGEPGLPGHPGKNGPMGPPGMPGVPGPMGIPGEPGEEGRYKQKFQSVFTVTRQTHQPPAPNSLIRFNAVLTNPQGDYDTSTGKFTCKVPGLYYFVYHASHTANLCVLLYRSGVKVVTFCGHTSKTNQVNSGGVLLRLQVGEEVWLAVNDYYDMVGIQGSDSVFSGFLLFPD

PE-signal (geomean): 2160
Substance: combination of trastuzumab and pertuzumab

Source: patent US20230212312A1
